Reference: patent US20210070843A1

Assays:
[1] = biological target: full-length H1 A/California/07/2009 HA expressed on 293T cells (influenza A virus A/California/07/2009 (H1N1)); test: cell-based or functional assay
[2] = biological target: cell surface-expressed H3N2 WN/05 HA trimer (influenza A virus A/Wisconsin/67/2005 (H3N2)); test: cell-based or functional assay
[3] = biological target: H7 A/Anhui/1-BALF_RG17/2013 HA on H7N9 AH/13 pseudo virus (influenza A virus A/Anhui/1-BALF_RG17/2013 (H7N9)); test: cell-based or functional assay
[4] = biological target: full-length H5 A/Vietnam/1203/2004 HA expressed on 293T cells (influenza A virus A/Vietnam/1203/2004 (H5N1)); test: cell-based or functional assay
[5] = biological target: full-length H1 A/California/07/2009 HA expressed on 293T cells (influenza A virus A/California/07/2009 (H1N1)); test: flow cytometry, HA-expressing 293T
[6] = biological target: cell surface-expressed H3N2 WN/05 HA trimer (influenza A virus A/Wisconsin/67/2005 (H3N2)); test: flow cytometry, HA-expressing 293T
[7] = biological target: full-length H5 A/Vietnam/1203/2004 HA expressed on 293T cells (influenza A virus A/Vietnam/1203/2004 (H5N1)); test: flow cytometry, HA-expressing 293T

B1: P47 (antibody, V domains shown)
VH: EVQLVESGGGLVQPGGSLRLSCAASGFTIGNSGIHWVRQAPGKGLEWVASIWPSGGSTYYADSVKGRFTISADTSKNTAYLQMNSLRAEDTAVYYCARFGHIDGDIMDYWGQGTLVTVSS
VL: DIQMTQSPSSLSASVGDRVTITCRASQDVYYYVAWYQQKPGKAPKLLISGSSYLYSGVPSRFSGSGSGTDFTLTISSLQPEDFATYYCQQYYNWPLTFGQGTKVEIKR
IC50 of pseudo virus neutralization H1N1 CA/09 [1]: > 100 µg/mL
IC50 of true virus neutralization H1N1 CA/09 [1]: > 500 µg/mL
IC50 of pseudo virus neutralization H3N2 WN/05 [2]: > 20 µg/mL
IC50 of pseudo virus neutralization H7N9 AH/13 [3]: > 200 µg/mL
IC50 of pseudo virus neutralization H5N1 VN/04 [4]: > 200 µg/mL
EC50 [5]: 0.61 µg/mL
max. MFI [5]: 10200 MFI
max. MFI [6]: 175 MFI
max. MFI [7]: 396 MFI

B2: P10 (antibody, V domains shown)
VH: EVQLVESGGGLVQPGGSLRLSCAASGFTIDNSWIHWVRQAPGKGLEWVASIWPFGGYTYYADSVKGRFTISADTSKNTAYLQMNSLRAEDTAVYYCARFGNVFDWYMDYWGQGTLVTVSS
VL: DIQMTQSPSSLSASVGDRVTITCRASQDVNSNVAWYQQKPGKAPKLLIYWAGYLYSGVPSRFSGSGSGTDFTLTISSLQPEDFATYYCQQSSDFPITFGQGTKVEIKR
IC50 of pseudo virus neutralization H1N1 CA/09 [1]: 0.465 µg/mL
IC50 of true virus neutralization H1N1 CA/09 [1]: > 500 µg/mL
IC50 of pseudo virus neutralization H3N2 WN/05 [2]: > 20 µg/mL
IC50 of pseudo virus neutralization H7N9 AH/13 [3]: > 200 µg/mL
IC50 of pseudo virus neutralization H5N1 VN/04 [4]: > 200 µg/mL
EC50 [5]: 0.41 µg/mL
max. MFI [5]: 9660 MFI
max. MFI [6]: 117 MFI
max. MFI [7]: 517 MFI

B3: P48 (antibody, V domains shown)
VH: EVQLVESGGGLVQPGGSLRLSCAASGFTINSWGIHWVRQAPGKGLEWVAGIGPSWGYTSYADSVKGRFTISADTSKNTAYLQMNSLRAEDTAVYYCARFGDGDFDLMDYWGQGTLVTVSS
VL: DIQMTQSPSSLSASVGDRVTITCRASQDVWSYVAWYQQKPGKAPKLLISYTSYLYSGVPSRFSGSGSGTDFTLTISSLQPEDFATYYCQQYFNWPITFGQGTKVEIKR
IC50 of pseudo virus neutralization H1N1 CA/09 [1]: > 100 µg/mL
IC50 of true virus neutralization H1N1 CA/09 [1]: > 500 µg/mL
IC50 of pseudo virus neutralization H3N2 WN/05 [2]: > 20 µg/mL
IC50 of pseudo virus neutralization H7N9 AH/13 [3]: > 200 µg/mL
IC50 of pseudo virus neutralization H5N1 VN/04 [4]: > 200 µg/mL
EC50 [5]: 2.4 µg/mL
max. MFI [5]: 7860 MFI
max. MFI [6]: 258 MFI
max. MFI [7]: 474 MFI

B4: S07 (antibody, V domains shown)
VH: EVQLVESGGGLVQPGGSLRLSCAASGFTINSSGIHWVRQAPGKGLEWVASIGPSWGSTYYADSVKGRFTISADTSKNTAYLQMNSLRAEDTAVYYCARFGIGDIDVMDYWGQGTLVTVSS
VL: DIQMTQSPSSLSASVGDRVTITCRASQDVWGYVAWYQQKPGKAPKLLISYASFLYSGVPSRFSGSGSGTDFTLTISSLQPEDFATYYCQQYFNWPVTFGQGTKVEIKR
IC50 of pseudo virus neutralization H1N1 CA/09 [1]: > 100 µg/mL
IC50 of true virus neutralization H1N1 CA/09 [1]: > 500 µg/mL
IC50 of pseudo virus neutralization H3N2 WN/05 [2]: > 20 µg/mL
IC50 of pseudo virus neutralization H7N9 AH/13 [3]: > 200 µg/mL
IC50 of pseudo virus neutralization H5N1 VN/04 [4]: > 200 µg/mL
EC50 [5]: 1.61 µg/mL
max. MFI [5]: 10800 MFI
EC50 [6]: 3.71 µg/mL
max. MFI [6]: 410 MFI
EC50 [7]: 4.98 µg/mL
max. MFI [7]: 863 MFI

B5: S01 (antibody, V domains shown)
VH: EVQLVESGGGLVQPGGSLRLSCAASGFTINNYGIHWVRQAPGKGLEWVASIWPSGGYTSYADSVKGRFTISADTSKNTAYLQMNSLRAEDTAVYYCARFGLGDYDIMDYWGQGTLVTVSS
VL: DIQMTQSPSSLSASVGDRVTITCRASQDVWGYVAWYQQKPGKAPKLLISFPSSLYSGVPSRFSGSGSGTDFTLTISSLQPEDFATYYCQQYYDGPVTFGQGTKVEIKR
IC50 of pseudo virus neutralization H1N1 CA/09 [1]: > 100 µg/mL
IC50 of true virus neutralization H1N1 CA/09 [1]: > 500 µg/mL
IC50 of pseudo virus neutralization H3N2 WN/05 [2]: > 20 µg/mL
IC50 of pseudo virus neutralization H7N9 AH/13 [3]: > 200 µg/mL
IC50 of pseudo virus neutralization H5N1 VN/04 [4]: > 200 µg/mL
EC50 [5]: 0.384 µg/mL
max. MFI [5]: 8430 MFI
max. MFI [6]: 178 MFI
max. MFI [7]: 306 MFI

B6: S51 (antibody, V domains shown)
VH: EVQLVESGGGLVQPGGSLRLSCAASGFTIDDWGIHWVRQAPGKGLEWVAWIWPYGGFTSYADSVKGRFTISADTSKNTAYLQMNSLRAEDTAVYYCARFGFVDWNLMDYWGQGTLVTVSS
VL: DIQMTQSPSSLSASVGDRVTITCRASQDVWGYVAWYQQKPGKAPKLLISYTTYLYSGVPSRFSGSGSGTDFTLTISSLQPEDFATYYCQQYYNSPVTFGQGTKVEIKR
IC50 of pseudo virus neutralization H1N1 CA/09 [1]: > 100 µg/mL
IC50 of true virus neutralization H1N1 CA/09 [1]: > 500 µg/mL
IC50 of pseudo virus neutralization H3N2 WN/05 [2]: > 20 µg/mL
IC50 of pseudo virus neutralization H7N9 AH/13 [3]: > 200 µg/mL
IC50 of pseudo virus neutralization H5N1 VN/04 [4]: > 200 µg/mL
EC50 [5]: 0.754 µg/mL
max. MFI [5]: 6290 MFI
max. MFI [6]: 340 MFI
max. MFI [7]: 452 MFI

B7: S40 (antibody, V domains shown)
VH: EVQLVESGGGLVQPGGSLRLSCAASGFTIGDFGIHWVRQAPGKGLEWVAGIWPFGGYTYYADSVKGRFTISADTSKNTAYLQMNSLRAEDTAVYYCARFVNWDGDYMDYWGQGTLVTVSS
VL: DIQMTQSPSSLSASVGDRVTITCRASQDVGFYVAWYQQKPGKAPKLLISWSSYLYSGVPSRFSGSGSGTDFTLTISSLQPEDFATYYCQQYYNYPLTFGQGTKVEIKR
IC50 of pseudo virus neutralization H1N1 CA/09 [1]: > 100 µg/mL
IC50 of true virus neutralization H1N1 CA/09 [1]: 436 µg/mL
IC50 of pseudo virus neutralization H3N2 WN/05 [2]: > 20 µg/mL
IC50 of pseudo virus neutralization H7N9 AH/13 [3]: > 200 µg/mL
IC50 of pseudo virus neutralization H5N1 VN/04 [4]: > 200 µg/mL
EC50 [5]: 0.46 µg/mL
max. MFI [5]: 8630 MFI
max. MFI [6]: 109 MFI
EC50 [7]: 2.85 µg/mL
max. MFI [7]: 724 MFI

B8: P14 (antibody, V domains shown)
VH: EVQLVESGGGLVQPGGSLRLSCAASGFTIGDFGIHWVRQAPGKGLEWVAGIWPFGGYTYYADSVKGRFTISADTSKNTAYLQMNSLRAEDTAVYYCARFVNWDGDYMDYWGQGTLVTVSS
VL: DIQMTQSPSSLSASVGDRVTITCRASQDVGFYVAWYQQKPGKAPKLLISWSSYLYSGVPSRFSGSGSGTDFTLTISSLQPEDFATYYCQQYYNYPLTFGQGTKVEIKR
IC50 of pseudo virus neutralization H1N1 CA/09 [1]: > 100 µg/mL
IC50 of true virus neutralization H1N1 CA/09 [1]: 4390 µg/mL
IC50 of pseudo virus neutralization H3N2 WN/05 [2]: > 20 µg/mL
IC50 of pseudo virus neutralization H7N9 AH/13 [3]: > 200 µg/mL
IC50 of pseudo virus neutralization H5N1 VN/04 [4]: > 200 µg/mL
EC50 [5]: 0.125 µg/mL
max. MFI [5]: 8340 MFI
max. MFI [6]: 154 MFI
max. MFI [7]: 328 MFI

B9: P25 (antibody, V domains shown)
VH: EVQLVESGGGLVQPGGSLRLSCAASGFTISNGGIHWVRQAPGKGLEWVAGIGPYGGYTYYADSVKGRFTISADTSKNTAYLQTNSLRAEDTAVYYCARFYGYSGIMDYWGQGTLVTVSS
VL: DIQMTQSPSSLSASVGDRVTITCRASQDVWGYVAWYQQKPGKAPKLLISGSRSLYSGVPSRFSGSGSGTDFTLTISSLQPEDFATYYCQQYYNYPITFGQGTKVEIKR
IC50 of pseudo virus neutralization H1N1 CA/09 [1]: > 100 µg/mL
IC50 of true virus neutralization H1N1 CA/09 [1]: > 500 µg/mL
IC50 of pseudo virus neutralization H3N2 WN/05 [2]: > 20 µg/mL
IC50 of pseudo virus neutralization H7N9 AH/13 [3]: > 200 µg/mL
IC50 of pseudo virus neutralization H5N1 VN/04 [4]: > 200 µg/mL
EC50 [5]: 0.761 µg/mL
max. MFI [5]: 2380 MFI
max. MFI [6]: 152 MFI
max. MFI [7]: 318 MFI

B10: C05 (antibody, V domains shown)
VH: PVQLQESGGGLVQPGESLRLSCVGSGSSFGESTLSYYAVSWVRQAPGKGLEWLSIINAGGGDIDYADSVEGRFTISRDNSKETLYLQMTNLRVEDTGVYYCAKHMSMQQVVSAGWERADLVGDAFDVWGQGTMVTVSS
VL: DIQLTQSPSSLSASVGDRVTLTCQASQDIRKFLNWYQQKPGKGPKLLIYDASNLQRGVPSRFSGGGSGTDFTLIISSLQPEDVGTYYCQQYDGLPFTFGGGTKVEIKR
IC50 of pseudo virus neutralization H1N1 CA/09 [1]: > 100 µg/mL
IC50 of true virus neutralization H1N1 CA/09 [1]: > 500 µg/mL
IC50 of pseudo virus neutralization H3N2 WN/05 [2]: 0.0102 µg/mL
IC50 of pseudo virus neutralization H7N9 AH/13 [3]: > 200 µg/mL
IC50 of pseudo virus neutralization H5N1 VN/04 [4]: > 200 µg/mL
max. MFI [5]: 86 MFI
EC50 [6]: 0.13 µg/mL
max. MFI [6]: 14600 MFI
max. MFI [7]: 547 MFI
